Laboratory results: publication PMC9352680, “A comprehensive thermodynamic model for RNA binding by the Saccharomyces cerevisiae Pumilio protein PUF4”

T1: PUF4 RNA-binding domain (Saccharomyces cerevisiae, UniProt P25339 537-888)
T1 sequence: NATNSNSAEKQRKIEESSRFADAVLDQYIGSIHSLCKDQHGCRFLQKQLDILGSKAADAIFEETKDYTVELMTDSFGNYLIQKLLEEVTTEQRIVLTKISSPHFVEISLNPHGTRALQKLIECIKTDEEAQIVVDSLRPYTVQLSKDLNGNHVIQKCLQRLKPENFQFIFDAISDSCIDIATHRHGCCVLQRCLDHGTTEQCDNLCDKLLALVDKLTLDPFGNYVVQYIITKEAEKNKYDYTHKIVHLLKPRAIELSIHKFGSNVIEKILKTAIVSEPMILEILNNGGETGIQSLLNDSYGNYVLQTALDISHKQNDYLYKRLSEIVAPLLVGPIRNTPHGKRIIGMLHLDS


Target: T1, PUF4 RNA-binding domain
Test: Mg; RNA-MaP; 20 mM Na-HEPES pH 7.4, 30 mM KOAc, 0.75 mM MgCl2, 0.1% Tween-20, 5% glycerol, 0.1 mg/mL BSA, 2 mM DTT; 25 C; 0.0125-409.6 nM protein
Details: tags: N-His6-TEV cleaved; C-SNAP kept, Cy3B-labelled; label: tethered on chip by stalled RNA polymerase

Binder	Kd [nM]
UCUCUUUGUACCUCUUCUCUU (ssRNA) [Ic_S1_P4E.1_K4.1_C4.1_H4.1_A4.1_[T5C]_[A6C]_F4.1_[T8C]_[A9T]_T4.1]	587
UCUCUUUGUACCUACUCUCUU (ssRNA) [Ic_S1_P4E.1_K4.1_C4.1_H4.1_A4.1_[T5C]_[A6C]_F4.1_[T8A]_[A9C]_T4.1]	56.6
UCUCUUUGUACCUAUUCUCUU (ssRNA) [Ic_S1_P4E.1_K4.1_C4.1_H4.1_A4.1_[T5C]_[A6C]_F4.1_[T8A]_[A9T]_T4.1]	24.6
UCUCUUUGUACCUAAUCUCUU (ssRNA) [Ic_S1_P4E.1_K4.1_C4.1_H4.1_A4.1_[T5C]_[A6C]_F4.1_[T8A]_T4.1]	66.3
UCUCUUUGUACCUUGUCUCUU (ssRNA) [Ic_S1_P4E.1_K4.1_C4.1_H4.1_A4.1_[T5C]_[A6C]_F4.1_[A9G]_T4.1]	27.3
UCUCUUUGUACCUUUUCUCUU (ssRNA) [Ic_S1_P4E.1_K4.1_C4.1_H4.1_A4.1_[T5C]_[A6C]_F4.1_[A9T]_T4.1]	34.8
UCUCUUUGUACUGGUUCUCUU (ssRNA) [Ic_S1_P4E.1_K4.1_C4.1_H4.1_A4.1_[T5C]_[A6T]_[T7G]_F4.1_[T8G]_[A9T]_T4.1]	732
UCUCUUUGUACUGCGUCUCUU (ssRNA) [Ic_S1_P4E.1_K4.1_C4.1_H4.1_A4.1_[T5C]_[A6T]_[T7G]_F4.1_[T8C]_[A9G]_T4.1]	1280
UCUCUUUGUACUGCCUCUCUU (ssRNA) [Ic_S1_P4E.1_K4.1_C4.1_H4.1_A4.1_[T5C]_[A6T]_[T7G]_F4.1_[T8C]_[A9C]_T4.1]	684
UCUCUUAGUAUAUGUCUCUU (ssRNA) [Ib_S1_P3E.1_K3.1_C3.1_H3.1_[T1A]_A3.1_F3.1_[A8G]_T3.1]	> 2300
UCUCUUUGUACUGCAUCUCUU (ssRNA) [Ic_S1_P4E.1_K4.1_C4.1_H4.1_A4.1_[T5C]_[A6T]_[T7G]_F4.1_[T8C]_T4.1]	668
UCUCUUUGUACUGUGUCUCUU (ssRNA) [Ic_S1_P4E.1_K4.1_C4.1_H4.1_A4.1_[T5C]_[A6T]_[T7G]_F4.1_[A9G]_T4.1]	50.5
UCUCUUUGUACUGUAUCUCUU (ssRNA) [Ic_S1_P4E.1_K4.1_C4.1_H4.1_A4.1_[T5C]_[A6T]_[T7G]_F4.1_T4.1]	5.91
UCUCUUUGUACUCGCUCUCUU (ssRNA) [Ic_S1_P4E.1_K4.1_C4.1_H4.1_A4.1_[T5C]_[A6T]_[T7C]_F4.1_[T8G]_[A9C]_T4.1]	972
UCUCUUUGUACUCCGUCUCUU (ssRNA) [Ic_S1_P4E.1_K4.1_C4.1_H4.1_A4.1_[T5C]_[A6T]_[T7C]_F4.1_[T8C]_[A9G]_T4.1]	969
UCUCUUUGUACUCCCUCUCUU (ssRNA) [Ic_S1_P4E.1_K4.1_C4.1_H4.1_A4.1_[T5C]_[A6T]_[T7C]_F4.1_[T8C]_[A9C]_T4.1]	508

Binder	Kd [nM]
UCUCUUUGUACUCCUUCUCUU (ssRNA) [Ic_S1_P4E.1_K4.1_C4.1_H4.1_A4.1_[T5C]_[A6T]_[T7C]_F4.1_[T8C]_[A9T]_T4.1]	407
UCUCUUUGUACUCAGUCUCUU (ssRNA) [Ic_S1_P4E.1_K4.1_C4.1_H4.1_A4.1_[T5C]_[A6T]_[T7C]_F4.1_[T8A]_[A9G]_T4.1]	738
UCUCUUUGUACUCACUCUCUU (ssRNA) [Ic_S1_P4E.1_K4.1_C4.1_H4.1_A4.1_[T5C]_[A6T]_[T7C]_F4.1_[T8A]_[A9C]_T4.1]	1060
UCUCUUUGUACUCAUUCUCUU (ssRNA) [Ic_S1_P4E.1_K4.1_C4.1_H4.1_A4.1_[T5C]_[A6T]_[T7C]_F4.1_[T8A]_[A9T]_T4.1]	150
UCUCUUGGUAUAUUUCUCUU (ssRNA) [Ib_S1_P3E.1_K3.1_C3.1_H3.1_[T1G]_A3.1_F3.1_[A8T]_T3.1]	1250
UCUCUUUGUACUCUGUCUCUU (ssRNA) [Ic_S1_P4E.1_K4.1_C4.1_H4.1_A4.1_[T5C]_[A6T]_[T7C]_F4.1_[A9G]_T4.1]	30.5
UCUCUUUGUACUCUUUCUCUU (ssRNA) [Ic_S1_P4E.1_K4.1_C4.1_H4.1_A4.1_[T5C]_[A6T]_[T7C]_F4.1_[A9T]_T4.1]	33.7
UCUCUUUGUACUCUAUCUCUU (ssRNA) [Ic_S1_P4E.1_K4.1_C4.1_H4.1_A4.1_[T5C]_[A6T]_[T7C]_F4.1_T4.1]	3.48
UCUCUUUGUACUAGCUCUCUU (ssRNA) [Ic_S1_P4E.1_K4.1_C4.1_H4.1_A4.1_[T5C]_[A6T]_[T7A]_F4.1_[T8G]_[A9C]_T4.1]	643
UCUCUUUGUACUACCUCUCUU (ssRNA) [Ic_S1_P4E.1_K4.1_C4.1_H4.1_A4.1_[T5C]_[A6T]_[T7A]_F4.1_[T8C]_[A9C]_T4.1]	478
UCUCUUUGUACUACAUCUCUU (ssRNA) [Ic_S1_P4E.1_K4.1_C4.1_H4.1_A4.1_[T5C]_[A6T]_[T7A]_F4.1_[T8C]_T4.1]	140
UCUCUUUGUACUAACUCUCUU (ssRNA) [Ic_S1_P4E.1_K4.1_C4.1_H4.1_A4.1_[T5C]_[A6T]_[T7A]_F4.1_[T8A]_[A9C]_T4.1]	330
UCUCUUUGUACUAAAUCUCUU (ssRNA) [Ic_S1_P4E.1_K4.1_C4.1_H4.1_A4.1_[T5C]_[A6T]_[T7A]_F4.1_[T8A]_T4.1]	69.7
UCUCUUUGUACUAUCUCUCUU (ssRNA) [Ic_S1_P4E.1_K4.1_C4.1_H4.1_A4.1_[T5C]_[A6T]_[T7A]_F4.1_[A9C]_T4.1]	13.8
UCUCUUUGUACUAUUUCUCUU (ssRNA) [Ic_S1_P4E.1_K4.1_C4.1_H4.1_A4.1_[T5C]_[A6T]_[T7A]_F4.1_[A9T]_T4.1]	9.22
UCUCUUUGUAUGUAUCUCUU (ssRNA) [Ic_S1_P3E.1_K3.1_C3.1_H3.1_A3.1_[A6G]_F3.1_T3.1]	66.5
